The DeepSol protein solubility set

experiment: soluble on expression in E. coli; label from the status in PepcDB or PDB records

| Sequence | soluble on expression in E. coli |
| --- | --- |
| MEKEAFMEKLLSFMKEEAYKPLTVQELEEMLNITEAEEFKELVKALVALEEKGLIVRTRSDRYGIPEKMNLIKGKISAHAKGFAFLLPEDTSLSDVFIPPNELNTAMNGDIVMVRLNSQSSGSRQEGTVIRILERAIQRVVGTYTETRNFGFVIPDDKKITSDIFIPKNGKNGAAEGHKVVVKLTSYPEGRMNAEGEVETILGHKNDPGIDILSVIHKHGLPGEFPADAMEQASSTPDTIDEKDLKDRRDLRDQVIVTIDGADAKDLDDAVTVTKLDDGSYKLGVHIADVSHYVTENSPIDKEALERGTSVYLVDRVIPMIPHRLSNGICSLNPKVDRLTLSCEMTINSQGQVTEHEIFQSVIKTTERMTYSDVNKILVDDDEELKQKYEPLVPMFKDMERLAQILRDKRMDRGAVDFDFKEAKVLVDDEGAVKDVVIRERSVAEKLIEEFMLVANETVAEHFHWMNVPFIYRIHEEPNAEKLQKFLEFVTTFGYVVKGTAGNIHPRALQSILDAVRDRPEETVISTVMLRSMKQAKYDPQSLGHFGLSTEFYTHFTSPIRRYPDLIVHRLIRTYLINGKVDEATQEKWAERLPDIAEHTSSMERRAVDAERETDDLKKAEYMLDKIGEEFDGMISSVTNFGMFVELPNTIEGLVHVSFMTDDYYRFDEQHFAMIGERTGNVFRIGDEITVKVVDVNKDERNIDFEIVGMKGTPRRPRELDSSRSRKRGKPARKRVQSTNTPVSPAPSEEKGEWFTKPKKKKKKRGFQNAPKQKRKKKKLEHHHHHH | not soluble |
| MKITHCKLKKEVQKEPLRSFVPEVTARSAADILGIHPDSAALFYRKIRTVANHRLALAADGVFEGPAGPGGSYFGGRRKGRRGRGAAGKAVVFGIPKRNGRAYTVAADNAEPETLPPAVKKKIMPDGIVYADSPGSRGKLDAGGFTRCRINRSKEFADRRNHINGIGDFWNQAKRALRKYNGIDRKPFPPFLRECEFRLNFGTPSRQLKILRDRCGILEHHHHHH | not soluble |
| MAFSGSQAPYLSPAVPFSGTIQGGLQDGLQITVNGTVLSSSGTRFAVNFQTGFSGNDIAFHFNPRFEDGGYVVCNTRQNGSWGPEERKTHMPFQKGMPFDLCFLVQSSDFKVMVNGILFVQYFHRVPFHRVDTISVNGSVQLSYISFQNPRTVPVQPAFSTVPFSQPVCFPPRPRGRRQKPPGVWPANPAPITQTVIHTVQSAPGQMFSTPAIPPMMYPHPAYPMPFITTILGGLYPSKSILLSGTVLPSAQRFHINLCSGNHIAFHLNPRFDENAVVRNTQIDNSWGSEERSLPRKMPFVRGQSFSVWILCEAHCLKVAVDGQHLFEYYHRLRNLPTINRLEVGGDIQLTHVQT | soluble |
| MLMFTEKEFAAFEVAGLDERMAVIRAQIQPIFQELDTYFAEQLAPELGTELFVHIAQHRRRTVYPPENTWSALSPNKRGYKMQPHFQLGIWGDYVFMWLSFIDNPKNEKQIAQAFLENQQLFQALPEDTYVSLDHTVPQITPLPETDLEKALTRFRDVKKGEFEIGRIIPKDSDLWQNPEKARAYMLATYQQLLPLYQLAVAQ | not soluble |
| TVESNWGGAILIGSDFDTVSATANVPSASGGSSAAGTAWVGIDGDTCQTAILQTGFDWYGDGTYDAWYEWYPEVSDDFSGITISEGDSIQMSVTATSDTSGSATLENLTTGQKVSKSFSNESSGSLCRTNAEFIIEDFEECNSNGSDCEFVPFASFSPAVEFTDCSVTSDGESVSLDDAQITQVIINNQDVTDCSVSGTTVSCSYV | soluble |
| MSQLLQDYLNWENYILRRVDFPTSYVVEGEVVRIEAMPRLYISGMGGSGVVADLIRDFSLTWNWEVEVIAVKDYFLKARDGLLIAVSYSGNTIETLYTVEYAKRRRIPAVAITTGGRLAQMGVPTVIVPKASAPRAALPQLLTAALHVVAKVYGIDVKIPEGLEPPNEALIHKLVEEFQKRPTIIAAESMRGVAYRVKNEFNENAKIEPSVEILPEAHHNWIEGSERAVVALTSPHIPKEHQERVKATVEIVGGSIYAVEMHPKGVLSFLRDVGIASVKLAEIRGVNPLATPRIDALKRRLQ | soluble |
| MGSDKIHHHHHHMIVTEYELLVCLAEELNMRKSAEKLFLSQPALSQRLQTIESRWNTKIFIRTQKGLLLTPEGEAIVRHASSVIEREHTIQEKLEAMEGVVRGTLRIACASVVAQMWLPRVLKAFSRTYPNVQISLVTGWSSEVTQQLAAGNVHIGIVRGSSTWKSVQKPLFNDKLILVDTEITKIEEVFQTNRPFIQFRSDSNYYQVIQDYWQRNFGKMPRQAMLMDQMETSRQMALNGIGFAILPEVTMIGYTDKINKIPLTEKDGSILSRETNLLTYEQSLSLPQVKAFLEITDKFLEQVK | not soluble |
| MVKQLNSVEAFREFIHQYPLAVVHVMRDQCSVCHAVLPQIEDLMQSYPNVPLAVINQSQVEAIAGELNIFTVPVDLIFMNGKEMHRQGRFIDMQRFEHHLKQMNDSVNNDVDEHEYRK | soluble |
| GGGGGGMNLRRRGIVVSFHSNMVTVEDEETGERILCKLRGKFRLQNLKIYVGDRVEYTPDETGSGVIENVLHRKNLLTKPHVANVDQVILVVTVKMPETSTYIIDKFLVLAEKNELETVMVINKMDLYDEDDLRKVRELEEIYSGLYPIVKTSAKTGMGIEELKEYLKGKISTMAGLSGVGKSSLLNAINPGLKLRVSEVSEKLQRGRHTTTTAQLLKFDFGGYVVDTPGFANLEINDIEPEELKHYFKEFGDKQCFFSDCNHVDEPECGVKEAVENGEIAESRYENYVKMFYELLGRRKK | soluble |
| MGSDKIHHHHHHMYRILVINPGSSSTKVAVFEDEKKIAEKNVSHSVEELKKFKRSMDQEPLRRKAVEDFIDEVGYRIEDFSAIAARGGVLEPVPGGTYVVNEYMVDYLINRSPVDHVSNLAAVIGYKLGKPHGIPCFVVDPVSVDEMCDEARFSGIPEIERKSYSHALNIKAVLRKVSREMGKTPEEVKIVVAHLGSGISVCACKNGKIIDVNNANDEGPFSIERTGELPVGDVVKTAYSSKHSAAELKEEFTRKGGLLAYLGTKNLKKALDSMETSRKAKLVVEAMAYQIAKEIGGMCAVLGEKPDAIVITGGMAHEIRFVRMITDYIEKFGKVEVIPGELEMEALALGVLRVLRGEEKAMDYRSVVE | not soluble |
| MKITLSKRIGLLAFLLPCALALSTTVHAETNKLVIESGDSAQSRQHAAMEKEQWNDTRNLRQKVNKRTEKEWDKADAAFDNRDKCEQSANINAYWEPNTLRCLDRRTGRVITPLEHHHHHH | not soluble |
| MGSDKIHHHHHHMIHKLEMFIAVAREAHFGRAAESLGLTQPTLSTGIKQLEEMLGVQLIFRGSRYGGLTPEGQRALVWARQLVSDARTFRQEMRTARHGLSGIVRLAVIPTALTWAAHLSARFSAAHPNVRFSILSRTSAEILSMLENLEADAGLSYLDNEPLGRVTTEPLYRERHTVVAHRDSDIAMQDKVEWADLAGERLCLLTPNMQNRRIINEYFMAAGIAPEAQVESNSTVVLAAHVEAGDWITILPVDMARFLCGGKPHLVIREIEGTGMDHAVGLVAPYREPHTPVLNALISETRALAKAHA | not soluble |
| STAREQPIFSTRAHVFQIDPATKRNWIPAGKHALTVSYFYDATRNVYRIISIGGAKAIINSTVTPNMTFTKTSQKFGQWADSRANTVYGLGFASEQHLTQFAEKFQEVKEAARLARE | soluble |
| NDRFSWDTQFNISTIKNKLTSLIDEKPIPVGNHVLQVGQPIGSFYMYKMDGIYQDNQEVPEKLYAKGVRAGDIKYADKDNDGDLTPADKEIVGKPLPDFFGGLTNRFRYGNFDLTIFNTFSVGNDVYATGMGGIDAVGHNNYGMRKDIAANRWTGPGTNNSIPRAMISTHNTQASTYLLHDGSYFKFKDVTLGYTLPSNLTQKLNISNMRVYLSAQNLWTISSYPGYDPEVSYSVNNSKTMGEDAMTVPQLRTFVCGFNLTF | not soluble |
| MSSVGDFEEIILHDLKPYYHVPGAIHSEGITFVKETGTLLWVDIFKGEVHKVEDIEQPESSHSFFSISRANYGKNASIEYPPNPDELKESVGCIFPILDGASQNEIKQVLFGSKFGIGKLDFSKSEWEYVILYSECPELSTDRAYKLRSNDGNVSPDGKYIYVGLMSDFPFDLEPIGCLLRVDLLAHKIELVWNCLLIPNAIHWDESDQKTMYVTDSLNFTIWKCPGGDLLKRDELIDVKNSNNQSFESPEPDGSAIWFSKDGKHSGFLFITVWSTSKVQMFDLTNGKLLKEFILPEQTPRVSCCCFVGKDLFVTTANAEINDAVRTNTDKNGGCIYKIPNVLDGNVPLESTKRQPLH | soluble |
| MIKIEINGIDEIIAKLNLIANKTENKTDLMRNIAGTMESAVQTNFEVGGRPKWLGIKHRKGVPLVDSENLMDSITSAYDNDTAFVGTNEEYAAIHQFGGMAGRGCKVKIEARPFLTLTEQDKSDILEEITDYWQRLLQ | not soluble |
| TITLTENKRKSMEKLSVDGVISALAFDQRGALKRMMAQHQTKEPTVEQIEELKSLVSEELTPFASSILLDPEYGLPASRVRSEEAGLLLAYEKTGYDATTTSRLPDCLDVWSAKRIKEAGAEAVKFLLYYDIDGDQDVNEQKKAYIERIGSECRAEDIPFYLEILTYDEKIADNASPEFAKVKAHKVNEAMKVFSKERFGVDVLKVEVPVNMKFVEGFADGEVLFTKEEAAQAFRDQEASTDLPYIYLSAGVSAKLFQDTLVFAAESGAKFNGVLCGRATWAGSVKVYIEEGPQAAREWLRTEGFKNIDELNKVLDKTASPWTEKM | soluble |
| MEDIYYSPRYEDDEYEYRHVILPQAVSRKVPKGRLLSEAEWRRAGVQQSLGWEHYMVHNPEKHILLFRRKRHFTKADEERAKMELLRDMEVFNRAQQQTTATDEKLNAVFYEFVNKAV | not soluble |
| MRRGPARAAALHRAFSLHGKIAAMQRPASSSLPPLDPAASAHSASVARHLRAAIAAAGGWLPFSQWMSAALYAPGLGYYTAGATKLASPADAQGPALPAGDFVTAPELTPLFAATVARQIAQVLRATDTASVLEFGAGTGALAEGVLRALAGLDCPARYLIVEVSADLRQRQQSRLAPFGDRVQWLDQLPDAFAGCVLGNEVLDAMPATLFRWSETGVVQERGVTVDANGEFAWQDRDADAPLAQAVAQRMPPLPGYVSEINLQAEAWVRSMGLWLQRGAALLLDYGFPRSEYYHPQRAGGTLMCHLRHHAHADPFAAPGLQDITSHVDFTAMADAALAGGLQVLGYLSQARFLVNAGLLDALSQLDPADARAYAQAVAPVQKLLSEAEMGELFKVLAVGRDMPEPLLGFARGDRRGTL | not soluble |
| MSDEEEEDVNFKPGTEISSTKANYTVVRLLGEGGFGAVYLVQDNKSKKQSAMKVERKIEKRKHSKLKMEIAILKLVGSGKHFTQIVDRGKKDKEGFFFLVMELVGKSLADLKADRPDKVFSFATGLGVSCQCLEAVEELHKTGFIHRDLKPQNYACGLDEKRHNIYILDFGIARKYLNTKNELKTPRETVGFKGTVRFAPIACHRNTEMGPKDDCESWFYLLLDLIVPSGLPWRKLSDKHEVLKEKEECRKDKRSSLFAGLRQTDYLSKVLDYIDGRAYQDRVDYQFIYKNLAEACKVCNLDIDSPYDWELQKPEKTSKEPTSSKMP | not soluble |
| MGKTLFEKVWNAHVVTEVKDGPSILYIDKQLIHEVTSPQAFAGIEKRGIGVFRPERTLATPDHNVPTKGQNLPIVEDLSRFQVDKLTENCNKFGVTLYGLGHASQGVVHVVGPETGTTLPGMTIVCGDS | not soluble |
